According to patent US20250115886A1:

Molecular target: TsCC(A)-(RGG)3-GFP scaffold (Caenorhabditis elegans)
Test: integrated fluorescence intensity in condensates over whole cell, U2OS cells

Substance: Rac1-mCherry-TsCC(B) (from UniProt P63000 1-189)
- fraction of client localized to the synthetic organelle: 50%
